# Source: the DeepSol protein solubility set
# Assay: soluble on expression in E. coli; label from the status in PepcDB or PDB records
row,Sequence,soluble on expression in E. coli
1,MDLRDLKTFLHLAESRHFGRSARAMHVSPSTLSRQIQRLEEDLGQPLFVRDNRTVTLTEAGEELRVFAQQTLLQYQQLRHTLDQQGPSLSGELHIFCSVTAAYSHLPPILDRFRAEHPSVEIKLTTGDAADAMEKVVTGEADLAIAGKPETLPGAVAFSMLENLAVVLIAPALPCPVRNQVSVDKPDWSTVPFIMADQGPVRRRIELWFRRHKISNPQIYATVGGHEAMVSMVALGCGVALLPEVVLENSPEPVRNRVMILERSDEKTPFELGVCAQKKRLHEPLIDAFWKILPN,soluble
2,MSSVSEVNVDIKDFLMSINLEQYLLHFHESGFTTVKDCAAINDSLLQKIGISPTGHRRRILKQLQIILSKMQDIPIYANVHKTKKNDDPSKDYHVPSSDQNICIELSNSGSVQTSSPPQLETVRKNLEDSDASVERSQYPQSDDKLSPPKRDFPTAEEPHLNLGSLNDSLFGSDNIKIESLITKKTVDHTVEEQQTEKVKLITENLSKLPNADSECLSFVGCSTSGTNSGNGTNGLLEGSPPSPFFKFQGEMIVNDLYVPSSPILAPVRSRSKLVSRPSRSFLLRHRPVPEIPGSTKGVSGSYFRERRNVATSTEKSVAWQNSNEENSSSIFPYGETFLFQRLENSKKRSIKNEFLTQGEALKGEAATATNSFIIKSSIYDNRKEKISEDKVEDIWIPREDKNNFLIDTASESEYSTVEECFQSLRRKNSKASKSRTQKALILDSVNRHSYPLSSTSGNADSSAVSSQAISPYACFYGASAKKVKSGWLDKLSPQGKRMFQKRWVKFDGLSISYYNNEKEMYSKGIIPLSAISTVRVQGDNKFEVVTTQRTFVFRVEKEEERNDWISILLNALKSQSLTSQSQAVVTPEKCGYLELRGYKAKIFTVLSGNSVWLCKNEQDFKSGLGITIIPMNVANVKQVDRTVKQSFEIITPYRSFSFTAETEKEKQDWIEAVQQSIAETLSDYEVAEKIWFNESNRSCADCKAPDPDWASINLCVVICKKCAGQHRSLGPKDSKVRSLKMDASIWSNELIELFIVIGNKRANDFWAGNLQKDEELHMDSPVEKRKNFITQKYKEGKFRKTLLASLTKEELNKALCAAVVKPDVLETMALLFSGADVMCATGDPVHSTPYLLAKKAGQSLQMEFLYHNKFSDFPQHDIHSEGVLSQESSQSTFLCDFLYQAPSAASKLSSEKKLLEETNKKWCVLEGGFLSYYENDKSTTPNGTININEVICLAIHKEDFYLNTGPIFIFEIYLPSERVFLFGAETSQAQRKWTEAIAKHFVPLFAENLTEADYDLIGQLFYKDCHALDQWRKGWFAMDKSSLHFCLQMQEVQGDRMHLRRLQELTISTMVQNGEKLDVLLLVEKGRTLYIHGHTKLDFTVWHTAIEKAAGTDGNALQDQQLSKNDVPIIVNSCIAFVTQYGLGCKYIYQKNGDPLHISELLESFKKDARSFKLRAGKHQLEDVTAVLKSFLSDIDDALLTKELYPYWISALDTQDDKERIKKYGAFIRSLPGVNRATLAAIIEHLYRVQKCSEINHMNAHNLALVFSSCLFQTKGQTSEEVNVIEDLINNYVEIFEVIILYPALVKMVIMSLFANKYLCC,soluble
3,MGHHHHHHSHLKKNEQNFKLAGVKKDIEKLYEAVPQLSNVFKIEDKIGEGTFSSVYLATAQLQVGPEEKIALKHLIPTSHPIRIAAELQCLTVAGGQDNVMGVKYCFRKNDHVVIAMPYLEHESFLDILNSLSFQEVREYMLNLFKALKRIHQFGIVHRDVKPSNFLYNRRLKKYALVDFGLAQGTHDTKIELLKFVQSEAQQERCSQNKSHIITGNKIPLSGPVPKELDQQSTTKASVKRPYTNAQIQIKQGKDGKEGSVGLSVQRSVFGERNFNIHSSISHESPAVKLMKQSKTVDVLSRKLATKKKAISTKVMNSAVMRKTASSCPASLTCDCYATDKVCSICLSRRQQVAPRAGTPGFRAPEVLTKCPNQTTAIDMWSAGVIFLSLLSGRYPFYKASDDLTALAQIMTIRGSRETIQAAKTFGKSILCSKEVPAQDLRKLCERLRGMDSSTPKLTSDIQGHASHQPAISEKTDHKASCLVQTPPGQYSGNSFKKGDSNSCEHCFDEYNTNLEGWNEVPDEAYDLLDKLLDLNPASRITAEEALLHPFFKDMSL,not soluble
4,MSLKVVSLLTDFGDFYPGVMKGVILSLAPEARIVDITHSVEPQNILQGAFLLYHSFRYFRNAVHVAVVDPGVGSERRALVIEGKNHFFVGPDNGILYPSAVEDGIKAAYSIKEEISELVGELSSTFHGRDIFAPAAAMVVRGDYTYFEEINKEELEKLELFDCSIQGNKVRCRVVYVDRFGNVVTNLREVKGKGFYFRGVEFPFVKTYSDVDVGKPLSLIGSFGTLELSVREGSAAEMLGIKRGGGWIELEVLEGGSHHHHHH,soluble
5,MDDVYRAFDSVGNILNFRIVEKEQKGFWVSTKIKTVVFDSADMSSDDLFLKCLQSSYKAYFETEPAGLDKRQLMKTLIQKCGFSC,not soluble
6,MSTSHDRAVLNQILNPLMPTSDSGIAEIHLESDSLEHPGYELSLQLEREGVALAEGVRLDEAIEKFTKALEVCPKNPSAYNNRAQAYRLQNKPEKALDDLNEALSLAGPKTKTACQAYVQRASIYRLRGDDDKARTDFASAAELGSSFAKMQLVALNPYAAMCNKMLAEVFEKAKTGED,soluble
7,MGSDKIHHHHHHMATSTTSTPHDAVFKQFLCHPDTARDFLEIHLPSTLRQICNLNTLRLESGSFIEEDLRPHYSDILWSLETSEGEGYIYVVIEHQSTPDAHMAFRLMRYAMAAMQRHLEAGHKTLPLVVPMLFYHGNRSPYPFSLCWLDEFADPVMARKLYATAFPLVDITVVPDDEIMRHRRVALLELIQKHIRQRDLMGLVEQLVALLVKGYANDTQLQSLFNYMMHTGDAARFNTFIRQVAMRIPQHKEKIMTIADRLRQEGHRNGLQQGKQEGQRLAALRIARSMLNDGFDRDTVLRVTGLAPADLASENH,not soluble
8,MSMMDKTVLYFGLVEISFDVPDFIFQKIKEQNNKIRYYSKSINILGSVKFINSNQQFIEYDGNGNILVYGRLKYFKEGISLYYIGEYLAECLLIEHSDTLLIHAAAVYNPLSGHSILLLGDKGAGKTTVAIRLCIEHGYHLIGNDQVIFGSNSGILLTYAGTSFFKIRRTAVLSDNLLFKLFSKFFNRSLQFNKASWDDKISIFPKELGIRTCNFSTEISKIYYIKTDKKEKQIYHSIWSDSLASLYLNELLGRHISGQVACFQSDNGKYFSTMPLINYEKNNRVREQIVKGIFAKQKLFKITAATPAKIAEAIIENVKKNS,not soluble
9,MAQIVVIGAGLGGLPAAYELRHYLGKAHQVILISEFPQFTFVPGLVQVGLGHIPLDHMQLNVPMLAKRHGFKWVQGKVQKIDPLQKRIYTHETLNYDYLIIASGAELANDLVPGLGIYTHSICTPSHVLEARTAWETFCQQPGDLVVGAAPGTGCFGPAYEYVLLAEADLRRRGIRDQVKITYITPEPYIGHLGIANMAHSQTLTEALMNKRGIATLTNAQIVNISSDHIFLADGQSFGFAYSMILPAFRGAKFVKASGLGNERGFLPVLPTMRHRDYPEIYGVGVSVHLGQINDTQVSIGTPKSGQMTEAMAMVAAHNIAVELGSIAKPLQVPTLEALCFAEYGDTGIAYIAAPVLPDRLTGKRRYSYAIKGIWVNWAKAAFEKYFLAKMRLGVGLPWFEKLGLRLLFGLSMSRPAMAEDIVQPVNVLEHHHHHH,soluble
10,MSLATLAELYEFLETKQDDSHLDSRFSYDAFLPVEQPKARLEILTWWKIERLIEDENCNFDKNFIVSYFDERVKATNNQLLKYRYNYFISLLTNDNRYAKQSIDALIAVINTLLPKDKEDYPHVAEKAIEVLMSLIKRVKYKIPEATDLIWGVLESDYGYRTKMVCIRLAKEKGFFPSRDAKKIVCLCKDLLSLVKDSWRENCCELGLFYSSKIQGEAKPYMNFFYEALGDMEMGQLVDPATAPNNIAIPWMNEDHSQKAMAFYQKAGLTQKRNRAELAFRENKKKMVMLHFKIEKKTDKKIVEYFGNLEKELLEGKLSWLLENLSCPVRFLFPSYEQIRLRMSASKSTVEKLGFENKIMDINGNSKDAGKDFDLRQKYGIWLMNIVRNTVINMILTAVNIKQLTYSKLRKWFLKNTCFGIQLEYTRSGQVVTTTWFSQIDYGVEALIKQYNRFLQGKPTDWRLPVDILSIRFEGILRDMVGDYGGCVTKVGRDNSISQALLDDLLREPCLLQIFRKEDIEFFEYVFTAKGYNIRNYVAHAFYIPQDYGMIEATLVFLCILRLTMFSPKSKTITANEGHHHHHH,not soluble
11,MAHHHHHHMTDIAHGSRYDRDAAISTAAEQVAAGQYAENKPRAIMFVNKRPVEIIPQEENVLEVLEREGITVPKFCYHPILSVAGNCRMCMVQVDGTQNIVVACSTVALPGMSIITDSRLVRDAREGNVELILINHPNDCPICEQATNCDLQNVSMNYGTDIPRYREDKKAVEDFYFDPQTRVVLNRCIHCTRCIRFLNEHAQDFNLGQIGRGGLSEISTFLDELEVKTDNNMPVSQLCPVGKLYMGDADENNDIVRELEAAGATA,not soluble
12,MGSDKIHHHHHHMRVSVRNLTKIFRVGSIFSLKKLVAIDNVSFEIGSGEIFSLAGESGCGKTTTAKILLGLEEPTNGEVLYDGIKLKDFVENEMHFLKKVQTVQQNPFSTFNPFRKVEDYLFKTVLRFKMANTKDEALRLIEEKLSVVGLNFDEIKGRYPSEFSGGQLQRISIARALLTNPSFLVADEPVSMIDASLRISIVNLFRDLKERFGISILYITHDLSTAYYVADKLAIMFRGSIVEMGRAQDILDTPFHPYTKLLKSSIPVPDPEYEWDENINLSSTEREEFFAKGCKFASRCPEVMSICRESVPPDFDVNGRVVKCWLYK,not soluble
13,SGNLDDNKFTWVIKNVPTLNSDMLFSNYFVIGGCSWRVVAHSKENNFKESLSLTLIVAEDSAQKMGCGWSRYAKIIFTLVNQISEILSQRIETMFDQKSSVFSSETMFSIGKFDEHFAGFIVNGEIKIVVEFLEIIDKLVLSKESNPPFKKTKLNNDGEVSKDLIREVPVIMESIVVNGFHVLPSQVEFVKRIFEKHPDVAKEFRPTNRIVKTAYMNVLLSLIETLRQSPREISKNDLDGACGLLRSMKEAGFKLDWLEKKLNEVLEKKEKEESYETRMREIEEEMKDLKAKALDVGAPLRLDDVV,not soluble
14,TPVSEKQLAEVVANTVTPLMKAQSVPGMAVAVIYQGKPHYYTFGKADIAANKPVTPQTLFELGSISKTFTGVLGGDAIARGEISLDDPVTRYWPQLTGKQWQGIRMLDLATYTAGGLPLQVPDEVTDNASLLRFYQNWQPQWKPGTTRLYANASIGLFGALAVKPSGMPYEQAMTTRVLKPLKLDHTWINVPKAEEAHYAWGYRDGKAVRAVRVSPGMLDAQAYGVKTNVQDMANWVMANMAPENVADASLKQGIALAQSRYWRIGSMYQGLGWEMLNWPVEANTVVEGSDSKVALAPLPVAEVNPPAPPVKASWVHKTGSTGGFGSYVAFIPEKQIGIVMLANTSYPNPARVEAAYHILEALQ,soluble
15,MVIEESGNESEASVAPKRRRAPKGDMRRKALLDAATVVFARDGYSSASMREVALLAGITTVGLLHHFPNKEALLSALLERRDQRVTSRFQDMVTELTLDGFLKFLKLSMSFSVENADECQAALLMNTESLSPSHPACSWHRERFQMTHEHARGHLNALIEAGEVRADINVKALAQEIFSVMDGLQIQWLRSPDDVDVMAVFEVYVQRLGRDIKAHP,not soluble
16,MKVKEAMNPEIITVSPETRPLEAFEKMYKHGVRRLFVLEDDGKPVGVVSYTDLIGVLGTIKPDSEHPERDLKVRDIMVDEVITISADDNIEDAANLMLRADISGLLVMDDERPVGVITKTDICRLVAAEILVPS,not soluble
